According to FireProtDB (doi:10.1073/pnas.91.22.10325):

Settings: Equus caballus, pH 1.8, Thermal, HCl 20 mM, reversible: yes

Sequence of Cytochrome c wild type, P00004 (P00004 whole entry): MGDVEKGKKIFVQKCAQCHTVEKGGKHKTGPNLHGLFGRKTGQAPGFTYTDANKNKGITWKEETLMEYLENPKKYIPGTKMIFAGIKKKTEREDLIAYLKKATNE

## Cytochrome c wild type, P00004
CD, NaClO4 10 mM
  Tm: 25.8 °C
  heat capacity change of unfolding: 0.43 kcal/mol/K
  unfolding enthalpy (van 't Hoff): 28.2 kcal/mol
CD, NaClO4 20 mM
  Tm: 37 °C
  heat capacity change of unfolding: 0.43 kcal/mol/K
  unfolding enthalpy (van 't Hoff): 32.5 kcal/mol
CD, NaClO4 50 mM
  Tm: 47 °C
  heat capacity change of unfolding: 0.43 kcal/mol/K
  unfolding enthalpy (van 't Hoff): 38 kcal/mol
DSC, NaClO4 20 mM
  Tm: 34.4 °C
  heat capacity change of unfolding: 0.31 kcal/mol/K
  unfolding enthalpy (calorimetric): 32.3 kcal/mol
  unfolding enthalpy (van 't Hoff): 31.8 kcal/mol
DSC, NaClO4 30 mM
  Tm: 40 °C
  heat capacity change of unfolding: 0.31 kcal/mol/K
  unfolding enthalpy (calorimetric): 31.4 kcal/mol
  unfolding enthalpy (van 't Hoff): 31.4 kcal/mol
DSC, NaClO4 40 mM
  Tm: 42.6 °C
  heat capacity change of unfolding: 0.31 kcal/mol/K
  unfolding enthalpy (calorimetric): 34.9 kcal/mol
  unfolding enthalpy (van 't Hoff): 34.9 kcal/mol
DSC, NaClO4 50 mM
  Tm: 44.1 °C
  heat capacity change of unfolding: 0.31 kcal/mol/K
  unfolding enthalpy (calorimetric): 33.7 kcal/mol
  unfolding enthalpy (van 't Hoff): 33.7 kcal/mol
